From the DeepSol protein solubility set come the findings set out here.

The data set can be described thus: soluble on expression in E. coli; label from the status in PepcDB or PDB records.
Consider “GGMEVLDLVTGPDSVTEIEAFLNPRMGQPPTPESLTEGGQYYGWSRGINLATSDTEDSPGNNTLPTWSMAKLQLPMLNEDLTCDTLQMWEAVSVKTEVVGSGSLLDVHGFNKPTDTVNTKGISTPVEGSQYHVFAVGGEPLDLQGLVTDARTKYKEEGVVTIKTITKKDMVNKDQVLNPISKAKLDKDGMYPVEIWHPDPAKNENTRYFGNYTGGTTTPPVLQFTNTLTTVLLDENGVGPLCKGEGLYLSCVDIMGWRVTRNYDVHHWRGLPRYFKITLRKRWVKNPYP”, for which the “soluble on expression in E. coli” value is on record as “soluble”.

For the sequence “GMSEALSDSGLPPVQRVVTGHDAHGRAVFKSEDVTPTRMIPSGDASFLLVWTTATVPADNNDETDGRQREAGLTLDGGSVIRVVDMLPGKESPMHRTNSIDYGIVLEGEIELELDDGAKRTVRQGGIIVQRGTNHLWRNTTDKPCRIAFILIEAPAYLHNGQPLPEDKPDHK”, the “soluble on expression in E. coli” value is on record as “soluble”.

As to “GGHDVPLTNYLNAQYYTDITLGTPPQNFKVILDTGSSNLWVPSNECGSLACFLHSKYDHEASSSYKANGTEFAIQYGTGSLEGYISQDTLSIGDLTIPKQDFAEATSEPGLTFAFGKFDGILGLGYDTISVDKVVPPFYNAIQQDLLDEKRFAFYLGDTSKDTENGGEATFGGIDESKFKGDITWLPVRRKAYWEVKFEGIGLGDEYAELESHGAAIDTGTSLITLPSGLAEMINAEIGAKKGSTGQYTLDCNTRDNLPDLIFNFNGYNFTIGPYDYTLEVSGSCISAITPMDFPEPVGPLAIVGDAFLRKYYSIYDLGNNAVGLAKAI”, the “soluble on expression in E. coli” value is “soluble”.

Regarding “MSSAENIKESGKAKKQKNGNKNNNKKPSAEAIPLKNSPRNKLKKRGSMEQLSEQISEVFTIEMNNDQATVEEPTDTTVRINPADPSSPKVSTSEPKVTVPEPPPTHYAPVVVFIDHLSWPIFLHFVIVNRNMIITKVGRSFLTSLMPGDQISGVDSTPIWCIEDLEHEIQSKPARSVNLTVNRVWNIKCLTNIQLERILPQTDERLQYFMVHVYCSNGTGGLKLYSDKKRVLVQHIRAKTPICHALLVGDQILAINDEFLIGKPKKSLRRHAYDSIKKSFKTKGFAEIIACRPIGARSSPAPSVDAELSGKFANYACGVEKGNKLERKVTDETNNLPLEADALEIALRELTFLQQWVKQDFEEAPCEKGKSLLILKPPFENAKPYEYPPFVVNHQTQLVSAKALSSPVTNTPVAHSPPQALPNKTIIVPVGSTSSVLVPSTTSNALPPVLSLNSQSLSVKTLSMAPQVSQVEPPTSVMNGPTEAADLHVAVPPSPNTPRKRSIFKYKQEKGQTPEHQTTISFVEQPETSKITSDISEDEELKKCDPRSGIVAFIKNKFN”, the “soluble on expression in E. coli” value is on record as “not soluble”.

With “MWAFPERFEGRHVRLEPLALAHLPAFLRHYDPEVYRFLSRAPVAPTEEALRAHLEGLLGEPGRVNWAILFGKEVAGRISVIAPEPEHAKLELGTMLFKPFWGSPANKEAKYLLLRHAFEVLRAERVQFKVDLRNERSQRALEALGAVREGVLRKNRRLPDGAFRDDVVYSVLKEEWPGVKARLEARLYGASGNP”, the “soluble on expression in E. coli” value was “soluble”.

For the sequence “APQVVDKVAAVVNNGVVLESDVDGLMQSVKLNAAQARQQLPDDATLRHQIMERLIMDQIILQMGQKMGVKISDEQLDQAIANIAKQNNMTLDQMRSRLAYDGLNYNTYRNQIRKEMIISEVRNNEVRRRITILPQEVESLAQQVGNQNDASTELNLSHILIPLPENPTSDQVNEAESQARAIVDQARNGADFGKLAIAHSADQQALNGGQMGWGRIQELPGIFAQALSTAKKGDIVGPIRSGVGFHILKVNDLRGESKNISAAQKDRAYRMLMNRKFSEEAASWMQEQRASAYVKILSN”, the “soluble on expression in E. coli” value is given as “soluble”.

On to “MFGSSGFGNKSMFGGSNISTSTTTPAANTTQNDDFLVDGAPEDTIQVIKFSPTPQDKPMLACGSWDGTIRVWMFNDANTFEGKAQQNIPAPILDIAWIEDSSKIFIACADKEARLWDLASNQVAVVGTHDGPVKTCHWINGNNYQCLMTGSFDKTLRFWDMKNLPNQTQMAQIQLPERVYAADVLYPMAVVALANKHIKVYNLENGPTEVKDIESQLKFQIRCISIFKDKSNQNPAGFALGSIEGRVAVQYVDVANPKDNFTFKCHRSAELVNGFQEIYAVNDICFHPQHGTLVTIGSDGRYSMWDKDARTKLKTSEPHPMPLTCCDVHSSGAFLVYALGYDWSRGHEGNTQPGSKIVIHKCIEDMKPRPTKK”, for which the “soluble on expression in E. coli” value was “not soluble”.
